What was measured:
[1] = target: reduced wheat protein disulfide isomerase (wPDI^R) (wheat) (UniProt P52589); assay: ITC; MicroCal VP-ITC; 0.3 mM 1Dx5-NTD^AAA titrated into 70 uM wPDI, 27 additions of 10 uL; 1 mM DTT in both buffers (reduced wPDI); single-site binding model
[2] = target: oxidized wheat protein disulfide isomerase (wPDI^O) (wheat) (UniProt P52589); assay: ITC; MicroCal VP-ITC; 0.3 mM 1Dx5-NTD^AAA titrated into 70 uM wPDI, 27 additions of 10 uL; 0.5 mM GSSG in both buffers (oxidized wPDI); single-site binding model

## 1Dx5-NTD^AAA, triple mutant of the N-terminal domain of HMW glutenin subunit 1Dx5 in which all three cysteines were mutated into alanine (domain or fragment)
[1]
  Kd: 2.59 µM
[2]
  Kd: 316 µM

Source: PMC11376372
